The text below walks through data of the supplement of paper PMC10567573.

± gives the standard deviation.

The series in a line: protein stability index of a GFP-peptide fusion (GPS, HEK-293T) (PSI 1-6); higher = more stable.
Setting [1] is: treatment: DMSO, c terminus: a fixed tail appended.
[2] abbreviates: treatment: MLN4924 1 uM, 8 h, c terminus: a fixed tail appended.
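Also: 24-mer peptide tiles fused after GFP, lentivirally expressed, FACS-sorted into six equal bins by GFP/DsRed ratio, decoded by Illumina sequencing, PSI is the read-weighted mean bin number.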

With GASTFKEEPQTVPEARSRDATPPV [JUNB], the protein stability index by setting is: under setting [1], 5.34 ± 0.19; under setting [2], 5.32 ± 0.15.

VLGSQDALPIATAFTEYVHAYFRG [FCHO1]: the protein stability index was determined as 2.51 ± 0.25 under setting [1] and 2.43 ± 0.21 under setting [2].

Take LNLGPALSAALASSQKQHSFTSSD [C8orf76]: the protein stability index under setting [1] was 3.31 ± 0.31 and the protein stability index under setting [2] was determined as 3.35 ± 0.19.

Consider ICQKTATKKRKTFDSSRQRAEGTD [ZC2HC1A], for which the protein stability index came to 4.8 ± 0.1 under setting [1] and 4.67 ± 0.53 under setting [2].

Take LLTGQCDFGSNCRFSHMSERDLQE [ZMAT5]: the protein stability index was 2.67 ± 0.21 under setting [1] and 2.78 ± 0.17 under setting [2].

On to EPYGHLNPKWTKWLQKLCCPCCFG [PI4K2A], for which the protein stability index was found to be 3.33 ± 0.33 under setting [1] and 3.37 ± 0.21 under setting [2].

EKLSRGLRYYYDKNIIHKTSGKRY [ETS2]: the protein stability index was found to be 2.74 ± 0.34 under setting [1] and 2.92 ± 0.2 under setting [2].

For the sequence QEVVELPVTERQIEREHLIQLRRW [TBC1D10A], the protein stability index under setting [1] is 4.05 ± 0.25 and the protein stability index under setting [2] came to 4.22 ± 0.2.

Consider EYDVYSTFQSHEPEFDYLKSLEIE [PPP2R2C], for which the protein stability index runs as follows: under setting [1], 4.33 ± 0.17; under setting [2], 4.3 ± 0.078.

Sequence SWCLKRYDLEYWAFHDGQRSRLRP [TRIM14] returned a protein stability index under setting [1] of 2.18 ± 0.25 and a protein stability index under setting [2] of 2.33 ± 0.13.

Regarding IDEVRTQYEEIALKSKAEAEALYQ [KRT71], the protein stability index came out at 4.77 ± 0.29 under setting [1] and 5.01 ± 0.26 under setting [2].

Turning to QRRSMVSPNFGFMGQLLQYESEIL [DUSP5], the protein stability index by setting is: under setting [1], 2.5 ± 0.29; under setting [2], 2.45 ± 0.38.

AAQAAAAAHAAQAHRERNEFPEDP [PI4K2A] displayed a protein stability index under setting [1] of 5.36 ± 0.35 and a protein stability index under setting [2] of 5.5 ± 0.1.

In turn, IRVWFQNKRCKDKKKSILMKQLQQ [ISL2] gave a protein stability index under setting [1] of 2.08 ± 0.26 and a protein stability index under setting [2] of 2.17 ± 0.23.

On to GHLEVVRYLVGEHQADLEVANRHG [FEM1A], for which the protein stability index worked out at 3.4 ± 0.48 under setting [1] and 3.24 ± 0.41 under setting [2].

With TGIEESTDGMILGPEDLSYQIYDV [LARP4], the protein stability index under setting [1] came to 3.76 ± 0.28 and the protein stability index under setting [2] is 3.6 ± 0.29.

For the sequence SEAKADKILAEAAKLVPMGFTTAT [RAD51], the protein stability index under setting [1] is 3.93 ± 0.25 and the protein stability index under setting [2] is 3.93 ± 0.13.

The sequence IFMGYQNVEDEAETKKVLGLQDTI [PALM] returned a protein stability index under setting [1] of 3.27 ± 0.26 and a protein stability index under setting [2] of 3.35 ± 0.3.

Regarding LKAKLQMTEAALALSEQKAQDLGE [LRRC45], the protein stability index reads like this: under setting [1], 4.51 ± 0.36; under setting [2], 4.57 ± 0.28.

Take LVHSAVDVPTIQEKVNEGKYRSYE [ZMYND11]: the protein stability index was 4.47 ± 0.3 under setting [1] and 4.32 ± 0.2 under setting [2].

Regarding LDKQMSRDEHRARAMKIPFTNDKI [NFE2L1], the protein stability index under setting [1] came out at 4.13 ± 0.32 and the protein stability index under setting [2] amounted to 4.28 ± 0.25.

Sequence SYVCRCKQGYILNSDQTTCRIQDL [MATN2] yielded a protein stability index under setting [1] of 2.4 ± 0.31 and a protein stability index under setting [2] of 2.46 ± 0.42.

FQFTDWPEQGVPKSGEGFIDFIGQ [PTPRD]: the protein stability index amounted to 2.68 ± 0.22 under setting [1] and 2.84 ± 0.31 under setting [2].

Consider PTMAPAGQPAPVSMVPPSPAMAAS [SNAP91], for which the protein stability index was 4.75 ± 0.22 under setting [1] and 4.89 ± 0.28 under setting [2].

Take KQLNCVEISALNGNRINVPMVRKR [DLC1]: the protein stability index was found to be 4.12 ± 0.24 under setting [1] and 4.07 ± 0.3 under setting [2].

In the case of ASTKMCEQALGKGCGADSKKKRPP [PLK2], the protein stability index reads like this: under setting [1], 4.58 ± 0.11; under setting [2], 4.76 ± 0.24.

Turning to VMTLPSDLRKHRRKLLSPVSREEN [PPFIA4], the protein stability index reads like this: under setting [1], 3.61 ± 0.24; under setting [2], 3.9 ± 0.49.

Consider EQVANKGEPLALPLDAGEYCVPRG [BEX1], for which the protein stability index reads like this: under setting [1], 4.86 ± 0.29; under setting [2], 4.79 ± 0.27.

Regarding LISKGANVNRTTANNDHTVLSLAC [ANKRD17], the protein stability index by setting is: under setting [1], 2.82 ± 0.22; under setting [2], 2.81 ± 0.27.

For FAYYKLNDVRQAARSAASYMLFDP [P3H4], the protein stability index runs as follows: under setting [1], 2.12 ± 0.22; under setting [2], 2.14 ± 0.16.

With IVRFLESNWFVWVTQMNHIPMHID [FADS1], the protein stability index was 3.08 ± 0.95 under setting [1] and 3.1 ± 1 under setting [2].

SLNELMIVIGILSAYISNYAFANV [SLC2A12]: the protein stability index came to 3.35 ± 0.31 under setting [1] and 3.18 ± 0.39 under setting [2].

On to VVAGDTVSTGSTDNSPTSNSLEGG [ADAMTSL2], for which the protein stability index by setting is: under setting [1], 5.39 ± 0.4; under setting [2], 5.48 ± 0.15.

For YLGLPRLEFYRYYQQLKLEGPGEQ [SLC29A1], the protein stability index reads like this: under setting [1], 2.54 ± 0.39; under setting [2], 2.58 ± 0.38.

For the sequence DRSRTVSASSTGDLPKAKTRAADL [SRPK2], the protein stability index was 4.94 ± 0.11 under setting [1] and 4.68 ± 0.24 under setting [2].

In turn, IEETYSKAMAKLSKLASNGTPMGT [FCHO1] had a protein stability index under setting [1] of 3.4 ± 0.073 and a protein stability index under setting [2] of 3.78 ± 0.29.

Take ESIQRIAVHLCNALVCQVDNDHKE [ZER1]: the protein stability index by setting is: under setting [1], 2.81 ± 0.63; under setting [2], 2.64 ± 0.36.

Sequence DSHILLCLMGLAETPGCATLLPAS [DCAF4] had a protein stability index under setting [1] of 2.67 ± 0.45 and a protein stability index under setting [2] of 2.58 ± 0.55.

The sequence CRPLQFQPSKSHKKVLKKMLKFLA [ATE1] returned a protein stability index under setting [2] of 3.43 ± 0.17.

Regarding CAMEDHNCEQLCVNVPGSFVCQCY [MATN2], the protein stability index under setting [1] turned out to be 2.5 ± 0.35 and the protein stability index under setting [2] worked out at 2.48 ± 0.39.

Regarding SSCVKYLIFLSNFPFSLLGLLALA [TSPAN10], the protein stability index was found to be 2.94 ± 0.35 under setting [1] and 2.93 ± 0.35 under setting [2].

Turning to HDIVRFLVQLDDYRFASAGDDGIV [WDR41], the protein stability index is, setting by setting: under setting [1], 2.21 ± 0.061; under setting [2], 2.2 ± 0.25.

As for IQELELQAQIHGLPVPPTPGLLSL [TFE3], the protein stability index is, setting by setting: under setting [1], 2.62 ± 0.22; under setting [2], 2.56 ± 0.28.

As to ALENLQVEASCSVCLEYLKEPVII [TRIM39], the protein stability index by setting is: under setting [1], 2.77 ± 1; under setting [2], 2.95 ± 0.58.

RNNANGVDLNRNFPDLNTYIYYNE [CPN1]: the protein stability index by setting is: under setting [1], 3.17 ± 0.26; under setting [2], 3.14 ± 0.28.

Turning to FTNDKIINLPVEEFNELLSKYQLS [NFE2L1], the protein stability index by setting is: under setting [1], 2.85 ± 0.28; under setting [2], 2.76 ± 0.16.

Regarding QRQDPAAAQEGEDEGASAGQGPKP [GAGE1], the protein stability index is 5.62 ± 0.13 under setting [1] and 5.7 ± 0.14 under setting [2].

For the sequence SPSVPCIFCEEHFPVAEQDKLLKH [ZNF277], the protein stability index by setting is: under setting [1], 4.16 ± 0.24; under setting [2], 4.37 ± 0.084.

As for WVCQRSTVASMMHRQETVECLKKF [CAMK2B], the protein stability index by setting is: under setting [1], 2.73 ± 0.51; under setting [2], 2.9 ± 0.52.

For the sequence GEGEPGQGEGPEAGDAEVCPTPAR [NOP53], the protein stability index stood at 5.71 ± 0.2 under setting [1] and 5.67 ± 0.13 under setting [2].

Consider TNRVKECLAKGTFSDVTFILDDGT [RHOBTB2], for which the protein stability index is 3.52 ± 0.16 under setting [1] and 3.63 ± 0.18 under setting [2].

Regarding PAFLKWLSLASLLVYVAAFSIGLG [SLC2A12], the protein stability index was found to be 3.28 ± 0.15 under setting [1] and 3.48 ± 0.79 under setting [2].

On to MFFKDRFYMRTNPFYPEVELNFIS [MMP1], for which the protein stability index under setting [1] turned out to be 2.44 ± 0.73 and the protein stability index under setting [2] is 2.71 ± 0.68.

KSIDDTSNFDDFPESDILQPVPNT [STK38L]: the protein stability index under setting [1] came out at 5.25 ± 0.24 and the protein stability index under setting [2] was found to be 5.27 ± 0.077.

For LPPPDPNPPRAEFNYSVGFKDLNE [APBB1IP], the protein stability index under setting [1] came out at 4.42 ± 0.23 and the protein stability index under setting [2] turned out to be 4.36 ± 0.075.

For the sequence QAIYVIDFFWNETWYLKTIDICHD [DHCR7], the protein stability index was 3.14 ± 0.37 under setting [1] and 3.25 ± 0.4 under setting [2].

In the case of PPPPYEAVVSQMDQEQGSSFQMSE [FAM189A2], the protein stability index by setting is: under setting [1], 5.54 ± 0.27; under setting [2], 5.43 ± 0.096.

Turning to DLMVEATPRRVFANAHTYHINSIS [PPP2R2B], the protein stability index reads like this: under setting [1], 2.58 ± 0.23; under setting [2], 2.49 ± 0.3.

In the case of LAVAVPAVTSADSQFSQTTQAGS [LYSMD4], the protein stability index came to 3.91 ± 0.64 (treatment: DMSO, c terminus: native) and 3.96 ± 0.32 (treatment: MLN4924 1 uM, 8 h, c terminus: native).

EQGLSALHLAAQGRHAQTVETLLR [RIPK4] displayed a protein stability index under setting [1] of 3.71 ± 0.55 and a protein stability index under setting [2] of 4.12 ± 0.23.

For the sequence HTTLQCLAARVIVNHRIYYKGHIP [FEM1C], the protein stability index runs as follows: under setting [1], 2.43 ± 0.17; under setting [2], 2.43 ± 0.25.

FSTWNLDHIIEKKRTIIPTLVEAI [DFFB]: the protein stability index was determined as 2.44 ± 0.45 under setting [1] and 2.55 ± 0.34 under setting [2].

As to WIAHSEKLPRKVLQHVSEPQAHQE [SPACA9], the protein stability index is, setting by setting: under setting [1], 4.11 ± 0.35; under setting [2], 4.05 ± 0.34.

On to RNHGILMETHKELKPLLSPSSETT [LYSMD4], for which the protein stability index is, setting by setting: under setting [1], 4.49 ± 0.14; under setting [2], 4.62 ± 0.3.

For the sequence QTVPKRIPERLSIFCRDTQTVFQK [IQUB], the protein stability index reads like this: under setting [1], 2.56 ± 0.43; under setting [2], 2.24 ± 0.31.

On to LNVQKTVDYTGQAKAQVRKAVQYE [STX11], for which the protein stability index reads like this: under setting [1], 3.99 ± 0.11; under setting [2], 4.09 ± 0.19.

With LGTRESDTEVITVEKSSPATSLFV [BCL2L13], the protein stability index was 3.84 ± 0.15 under setting [1] and 4.04 ± 0.12 under setting [2].

For the sequence AALLILFAASLLTVFAWLLQYARG [C2CD2L], the protein stability index runs as follows: under setting [1], 2.74 ± 0.46; under setting [2], 3.15 ± 0.46.

Turning to PPGLPAETIKDLMRQFLRGLDFLH [CDK4], the protein stability index is, setting by setting: under setting [1], 2.21 ± 0.075; under setting [2], 2.57 ± 0.7.

Turning to KNSDGMEAAGVQIQMVNESLGYVR [CD207], the protein stability index amounted to 3.83 ± 0.28 under setting [1] and 4.08 ± 0.13 under setting [2].

For GKGRTASPINSPARGTPSPKRMPS [FSD1], the protein stability index by setting is: under setting [1], 5.13 ± 0.25; under setting [2], 5.05 ± 0.32.

On to MAPLLFNGCRSGEIFAIDLRCGNQ [DCAF4], for which the protein stability index under setting [1] amounted to 2.52 ± 0.29 and the protein stability index under setting [2] is 2.3 ± 0.56.
